We go through 12 sequences from a protein production outcome set (Wang et al. 2014).

The nature of this series: label from the status in PepcDB records.
With “MLSEQALELIDIVARVGSFTAAANRLHKVPSAVSYAVKQIEEELGVVLFERHHRSVTLTPAGGHFVKQARNLLTQIDEMKRGTQRVANGWQPTLSIALDNIVRADRISVLIADFYRHFHDIELIIRIEVFNGVWEALATGHSDVAIGATTAIPVGGVFQYKDMGDIEWAFLVSKNHPLANIDRPLTDEELRPFPSICLEDTSREIPKRMTWLLENQRRLVVPDWIRAINCFREGLGIGYMPVHLASVFIKAGALVEKQLENPKLTSPCCLAWNADKMSPALAWVLDYLGDTDKLHREWLA”, the protein production result was “failed”.
Under “MLSKILKTSLCFIFMTCWVTTAQAFKGPLETPASMKLHATTSQLTAVTRNGNRLAAVGARGLVLLSDDNGKKWQQVAVPVSSNLVSVQFPVPDQGWAVGHDGVVLHSGDGGRTWSKQLDGNQVAKIMLKHYEKLAAEGDAAASKILPDIQRILQEGADKPFMDVWFLDEKEGFVAGAFNLIMHTTDAGKTWVPLFERTDNPKNLHIYALKGVGKEVYLAGEMGMLRRWDRASQRFVTIASPYKGTFFGLLAKDTTILAFGLRGNAFRSSDRGNTWRKLNTNTTAGLTGGTFLDDGRAVLVSQDGQVLVIDVGSETFVPAKVSSPMAFSSVAPAGKNGIVAVGSRGVITESLK” stands “failed”.
For “MLSKRDAILKAAVEVFGKKGYDRATTDEIAEKAGVAKGLIFHYFKNKEELYYQAYMSVTEKLQKEFENFLMKNRNRDIFDFMERWIEKKLEYSASHPEEADFLITLVSVDEGLRKRILLDLEKSQRVFFDFVREKLKDLDLAEDVTEEIALKFLMWFFSGFEEVYLRTYQGKPELLKRDMNTLVEEVKVMLRILKKGMTK”, the protein production entry is recorded as “not failed”.
With “MLSKSKTTKALLYSTAALSLFAASHVHADETSHWTARSVDQIKADISVNDNQQTYTVQYGDTLGSIVEAMGIDMNVLANIKEITNIDLIFPGTVLTTTYNADNQAVSVKVETPSSETSDTPVVAESNLTTNEVTVNGQSVVASDLSAPVETVSLTATQAPAKEESTQVVSEVTEAIASASDTPAYADTEQPVADAIDHVTSSAEETLAEEEAPATETSAQAETTEVAATSEAASEAASEVPAEQLAAASEAPESSEAPAEQPAAAPESSEAPAEQPAATSEAASEAPASVVPVATSEAVSEAPAVSEVPAEQLAAASEAPESSEVPAEQPAAAPESSEAPAEQPAATSEAAPATSEAPAEQLAATSEAASTPNTYPVGQCTWGAKSLAPWAGNNWGNAKDWIASAQAAGHSVGTTPVAGAIAVWPNDGGGYGHVAYVTSASGVNSIQVMESNYAGNMLIGNYRGTFDPTSSAHGGSVYYIYP”, the protein production entry was “failed”.
Then “MLSRRASLAAIAIGLIAAAGAAHAQSPLGIGSAEPSFSLGGPFAPLMQWINVHQQMFYRALTGALKAMREDSWALGSLIGLSFAYGVFHAAGPGHGKAVISSYMIANETQLRRGILISFVSALIQGLMAIGLVGAAWLVLRGTSITMTKATQAMEIASFAMVALFGAWLLVRKLWSLRIRREPVPVFATAGEAPAARTNGMGTGLRFQGKPVFADHDHNGTGDLCTACGKSHAPDPMLLKGKNFSLHEAWSAIIAVGLRPCSGAIIVMSFALLNGLYLGGVLSVLAMSLGTAITVSALAIMAVSAKGLAVRFAGPGSRKAAGISHAIEIAGALFVLIMGLLLLGASLQF”, with “failed”; and “MLSYPGELQGCRVILYLVGHHLYLIPTTISMCGCPEEGAYMRRLWGYISIITATIFFGISATLDKIMLSSMHPVTIGAYTYIIAGIFLFFIRETPLREHVLNAINRKGESEARIKRNDYLILLLTALLSTVIAPLLFLTGLGDTTAVNASLILNVEVLFIILLGYLIFRETLQLKDFLGIVLIILGAVYLLTEGDFSTILRNVAVTGNFLVMAAAFFWSLDTVLSKFLSRKRDLIFISGVKSSVGGFVLLIIMLILGINTELPLEMLPYALGVSVFSIGCSFILIYIAIREIGASMVGALFPLSSLFGAIFAFIILREPFSIMQGISGIVMLTGVFILYWNGK”, with “failed”.
Under “MLTDALLAFLHFTAIFVLVTLMAAEAVVLRPDMPPSAVRRLSQYDFFYFLSAMVVLATGLLRLFYGAKGVDFYLHNPWFHAKITVFVLIALATLPPTFAFARWRKQSLKLPEFVPTPAEIKKVRRWVMIEAHAFILLPLCAVMMARGIGIH” stands “failed”.
For the sequence “MLTDSGGGGTSFEEDLDSVAPRSAPAGASEPPPPGGVGLGIRTVRLFGEAGPASGVGSSGGGGSGSGTGGGDAALDFKLAAAVLRTGGGGGASGSDEDEVSEVESFILDQEDLDNPVLKTTSEIFLSSTAEGADLRTVDPETQARLEALLEAAAFADPEVLRRLTSSVSCALDEAAAALTRMKAENSHNAGQVDTRSLAEACSDGDVNAVRKLLDEGRSVNEHTEEGESLLCLACSAGYYELAQVLLAMHANVEDRGNKGDITPLMAASSGGYLDIVKLLLLHDADVNSQSATGNTALTYACAGGFVDIVKVLLNEGANIEDHNENGHTPLMEAASAGHVEVARVLLDHGAGINTHSNEFKESALTLACYKGHLDMVRFLLEAGADQEHKTDEMHTALMEACMDGHVEVARLLLDSGAQVNMPADSFESPLTLAACGGHVELAALLIERGANLEEVNDEGYTPLMEAAREGHEEMVALLLAQGANINAQTEETQETALTLACCGGFSEVADFLIKAGADIELGCSTPLMEASQEGHLELVKYLLASGANVHATTATGDTALTYACENGHTDVADVLLQAGADLDKQEDMKTILEGIDPAKHQVRVAFDACKLLRKE”, the protein production result is reported as “failed”.
Under “MLTHYAALRASDRETFLIIELGGLGGRMGLVFVVMIVVLLYAPVHVPTYVGTLLGLLFVSIAFEIWMIVRRMRQDGLMARD” stands “failed”.
For “MLTKVIEQAKIDHFTKWFERADKIVIVSHVSPDGDAIGSSLGLYHFLDSQEKTVNVIVPNAFPDFLRWMPGSKDILLYDRYKDFADKLIAEADVICCLDFNALKRIDEMADAVAASPARKVMIDHHLYPEEFCKITMSYPKISSTSELIFRLICRMGYFSDISKEGAECIYTGMMTDTGGFTYNSNNREIYFIISELLSKGIDKDDIYRKVYNTYSESRLRLMGYVLSNMVVYSDYNAALISLTKEEQSKFDYIKGDSEGFVNIPLTIKNVCFSCFLREDTEKPMIKISLRSVGTFPCNQLAAEFFNGGGHLNASGGEFFGTIEEAKAVFEQALEKYKPLLTAKSLEHHHHHH”, the protein production result was “not failed”.
With “MLTLLNLLSAVTLLVWGTHIVRTGILRVFGSNLRRIISQNMDKRPLAFIAGILVTAMVQSSNATAMLVTSFVGQGLMAMTPALAIMLGADVGTALMARVLTFDLSWLSPLLIFLGVIFFLSRKQTRAGQLGRVGIGLGLIILALELIVQAAAPITQAQGVKVLFASLTGDIMLDALVGAMFAMISYSSLAAVLLTATLAGAELISLPVAIGLVVGANIGSGLLAFISTSMQNAAGRRVALGSLLYKLIGLVLIIPVLHPLVAWMDSLSFSPQELVIGFHLLYNTLRCLIMLPTVKPMGRLCNALLPEREIGNGQVRPRHLDASALETPSLALANAARETLRLGDIVDSLLEAMLGALRGTQTALPQQVRALGEDAEALYSAIKLYLAQMSREDLSEQDNRRWAEIIELSINLKLACDLIERMLRKVQQQKTSQRREFSQVGLEELTGLQEQLLANLRLGLSVFLSADPESARLLLREKRRFRAQERRLAHAHVSRLQRKVVQSIETSSLHLELIADMKRLNSLFCSSAYVVLGGSDTGGLMLDSVPDEARLP”, the protein production entry is “failed”.
Under “MLTLLSPCTLPVIPLLFASVRGRRGQLAIMLAGMALMFGAVSWLVTVASGWVVNLTLAGRGLALAFFALVGLSLLSQRVAQRLTSPLVALGNQLNDASSRQRGWIGSLLAGLAVGLLWAPCAGPVLGAILSLGFVHPGQATTGGLLLAYGSGGALMLFLLGWCGAALIARLRRGQAFGERLRRLAGGAMLASVALIASGGDRYLQSAGGLSQALEQRLAARLPQPEQKTSLQPIAAPQPSSAMPSLAGGSAWINSPALTPERLKGKVVLVDFWTRECINCQHTLPYVRDWANKYRAAGLVVIGVHTPEYPWERSLPLLRQAVKDWRITYPVVADNEYAIWNAFGNQYWPAHYIFDARGQLRYTAFGEGDYARQEQVIQQLLQESKA” stands “failed”.
